Biological target: human GLP-1R (human, UniProt P43220)
Experiment: cell-based or functional assay

Sequence of human GLP-1R (P43220 24-463): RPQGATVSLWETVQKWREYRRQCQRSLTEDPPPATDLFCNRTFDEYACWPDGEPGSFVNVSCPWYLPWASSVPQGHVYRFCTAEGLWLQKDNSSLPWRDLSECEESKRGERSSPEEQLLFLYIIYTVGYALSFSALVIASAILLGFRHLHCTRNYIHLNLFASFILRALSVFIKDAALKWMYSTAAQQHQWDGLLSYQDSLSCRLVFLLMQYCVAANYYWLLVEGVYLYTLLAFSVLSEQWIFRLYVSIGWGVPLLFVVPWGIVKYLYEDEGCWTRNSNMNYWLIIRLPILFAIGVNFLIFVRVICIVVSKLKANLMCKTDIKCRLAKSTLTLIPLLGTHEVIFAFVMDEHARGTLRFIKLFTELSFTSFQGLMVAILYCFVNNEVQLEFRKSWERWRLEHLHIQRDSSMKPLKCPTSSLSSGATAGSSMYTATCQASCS

IC50 of inhibition of GLP-1-mediated cAMP accumulation (Flashplate assay, BHK cells over-expressing human GLP-1R); blocks GLP-1 with GLP-1R: ~0.01 µM
B1: mAb 3F52 (antibody, V domains shown)
VH: DVQLQESGPGLVKPSQSLSLTCTVTGYSITSTYDWHWIRHFPGNILEWMGYISYSGSTNYNPSLKSRISITHDTSKNRFFLKLNSVTSEDTATYYCARATASFYDGSYYFDYWGQGTTLTVSS
VL: DIQMTQTTSSLSASLGDRVTISCRASQDISNYLNWYQQKPDGTVKLLIYYTSRLHSGVPSRFSGSGSGTDYSLTISSLEQEDVATYFCQQGNTLPFTFGSGTKLEIK

Reference: publication PMC4872540, “Structural insight into antibody-mediated antagonism of the Glucagon-like peptide-1 Receptor” (Scientific Reports, 2016)
